Test results: patent US6395523 (NEW ENGLAND BIOLABS, dated 2002)

Target: the molecule itself
Assay: gel filtration in the presence of DNA and Mg++ (self-association)

B1: nicking endonuclease N.BstNBI (enzyme)
chain: MAKKVNWYVSCSPRSPEKIQPELKVLANFEGSYWKGVKGYKAQEAFAKELAALPQFLGTTYKKEAAFSTRDRVAPMKTYGFVFVDEEGYLRITEAGKMLANNRRPKDVFLKQLVKWQYPSFQHKGKEYPEEEWSINPLVFVLSLLKKVGGLSKLDIAMFCLTATNNNQVDEIAEEIMQFRNEREKIKGQNKKLEFTENYFFKRFEKIYGNVGKIREGKSDSSHKSKIETKMRNARDVADATTRYFRYTGLFVARGNQLVLNPEKSDLIDEIISSSKVVKNYTRVEEFHEYYGNPSLPQFSFETKEQLLDLAHRIRDENTRLAEQLVEHFPNVKVEIQVLEDIYNSLNKKVDVETLKDVIYHAKELQLELKKKKLQADFNDPRQLEEVIDLLEVYHEKKNVIEEKIKARFIANKNTVFEWLTWNGFIILGNALEYKNNFVIDEELQPVTHAAGNQPDMEIIYEDFIVLGEVTTSKGATQFKMESEPVTRHYLNKKKELEKQGVEKELYCLFIAPEINKNTFEEFMKYNIVQNTRIIPLSLKQFNMLLMVQKKLIEKGRRLSSYDIKNLMVSLYRTTIECERKYTQIKAGLEETLNNWVVDKEVRF
notes: Tested for self-association by gel filtration under the same condition as MlyI; No dimers were observed
binding result: no binding
